# Measurements: IntAct's records for PubMed 20577264
# B1: G2 and S phase-expressed protein 1 (Homo sapiens), Q9NYZ3 (parent)
# chain: MEGGGGRDEPSACRAGDVNMDDPKKEDILLLADEKFDFDLSLSSSSANEDDEVFFGPFGHKERCIAASLELNNPVPEQPPLPTSESPFAWSPLAGEKFVEVYKEAHLLALHIESSSRNQAAQAAKPEDPRSQGVERFIQESKLKINLFEKEKEMKKSPTSLKRETYYLSDSPLLGPPVGEPRLLASSPALPSSGAQARLTRAPGPPHSAHALPRESCTAHAASQAATQRKPGTKLLLPRAASVRGRSIPGAAEKPKKEIPASPSRTKIPAEKESHRDVLPDKPAPGAVNVPAAGSHLGQGKRAIPVPNKLGLKKTLLKAPGSTSNLARKSSSGPVWSGASSACTSPAVGKAKSSEFASIPANSSRPLSNISKSGRMGPAMLRPALPAGPVGASSWQAKRVDVSELAAEQLTAPPSASPTQPQTPEGGGQWLNSSCAWSESSQLNKTRSIRRRDSCLNSKTKVMPTPTNQFKIPKFSIGDSPDSSTPKLSRAQRPQSCTSVGRVTVHSTPVRRSSGPAPQSLLSAWRVSALPTPASRRCSGLPPMTPKTMPRAVGSPLCVPARRRSSEPRKNSAMRTEPTRESNRKTDSRLVDVSPDRGSPPSRVPQALNFSPEESDSTFSKSTATEVAREEAKPGGDAAPSEALLVDIKLEPLAVTPDAASQPLIDLPLIDFCDTPEAHVAVGSESRPLIDLMTNTPDMNKNVAKPSPVVGQLIDLSSPLIQLSPEADKENVDSPLLKF
# Variants of: B1
# Conditions: with plk1_human PLK1, P53350
# Sequence of plk1_human PLK1, P53350 (P53350 whole entry): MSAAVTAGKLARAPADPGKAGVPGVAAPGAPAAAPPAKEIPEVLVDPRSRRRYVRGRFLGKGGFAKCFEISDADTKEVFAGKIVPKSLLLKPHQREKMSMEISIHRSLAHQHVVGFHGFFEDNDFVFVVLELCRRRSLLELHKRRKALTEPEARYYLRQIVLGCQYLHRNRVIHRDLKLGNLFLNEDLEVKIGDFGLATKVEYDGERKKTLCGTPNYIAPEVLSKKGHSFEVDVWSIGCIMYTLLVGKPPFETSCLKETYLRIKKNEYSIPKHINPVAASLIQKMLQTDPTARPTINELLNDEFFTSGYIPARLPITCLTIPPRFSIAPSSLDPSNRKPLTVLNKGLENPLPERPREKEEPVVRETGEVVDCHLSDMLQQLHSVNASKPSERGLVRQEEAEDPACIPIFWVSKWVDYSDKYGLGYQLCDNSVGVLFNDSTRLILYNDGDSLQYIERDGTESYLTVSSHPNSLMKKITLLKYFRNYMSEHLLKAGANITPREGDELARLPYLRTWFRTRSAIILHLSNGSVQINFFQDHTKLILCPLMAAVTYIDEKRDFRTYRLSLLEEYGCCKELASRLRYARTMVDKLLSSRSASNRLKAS
row,effect of a mutation on the interaction,Variant
1,disrupting interaction,S454A

# Variants of: B1
# Conditions: with plk1_human PLK1, P53350
# Remark: another data set of the same source
row,effect of a mutation on the interaction,Variant
1,disrupting interaction,S242A
